This is an account of results in US20210130455A1 (KEIO UNIVERSITY, published 2021).

To fix the notation:
T1: mouse AQP3 in cell lysate of HEK293T cells overexpressing mouse AQP3 and a myc-biotinylated tag (mouse, UniProt Q8R2N1 1-292, biotinylated tag (site not given))
T1 construct: also called AQP3 (cell lysate); not shown: myc-biotinylated tag
T1 sequence (looked up): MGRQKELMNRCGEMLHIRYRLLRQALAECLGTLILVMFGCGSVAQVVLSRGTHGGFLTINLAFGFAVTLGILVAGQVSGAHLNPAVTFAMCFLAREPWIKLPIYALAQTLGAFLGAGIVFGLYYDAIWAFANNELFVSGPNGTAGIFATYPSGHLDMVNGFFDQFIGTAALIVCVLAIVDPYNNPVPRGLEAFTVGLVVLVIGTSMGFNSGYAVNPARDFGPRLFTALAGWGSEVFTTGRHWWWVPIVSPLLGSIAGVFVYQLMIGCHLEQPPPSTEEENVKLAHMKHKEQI

T2: mouse AQP3 on the cell surface (PAM212 cells, mouse macrophage cells, HEK293 cells stably overexpressing … (mouse, UniProt Q8R2N1 1-292))
T2 construct: whole, on cells; Membrane water channel; also called mouse aquaporin 3
T2 sequence (looked up): T1 sequence (looked up)

T3: human AQP3 on the cell surface (HaCaT cells, A431 cells, HEK293 cells stably overexpressing human AQP3) (human, UniProt Q92482 1-292)
T3 construct: whole, on cells; Membrane water channel; also called human aquaporin 3
T3 sequence (looked up): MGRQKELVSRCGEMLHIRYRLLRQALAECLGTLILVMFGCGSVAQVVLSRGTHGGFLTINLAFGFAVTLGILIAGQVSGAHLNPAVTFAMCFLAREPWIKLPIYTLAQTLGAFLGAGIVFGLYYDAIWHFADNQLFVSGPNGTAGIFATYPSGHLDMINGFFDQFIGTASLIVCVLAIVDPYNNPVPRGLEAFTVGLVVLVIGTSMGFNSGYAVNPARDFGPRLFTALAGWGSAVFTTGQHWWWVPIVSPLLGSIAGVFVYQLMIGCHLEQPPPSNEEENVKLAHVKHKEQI

T4: peptide used for immunization (SEQ ID NO:1), ATYPSGHLDM (human and mouse (identical sequence))
T4 construct: Synthetic peptide; also called immunogen peptide; synthetic peptide
T4 peptide: ATYPSGHLDM

B1: antibody E (antibody, mouse IgG2a, kappa, V domains shown)
VH: EVKLLESGAELVRPGASVTLSCKASGYTFTDYEMHWVKQTPVHGLEWIGGIDPESGGTGYNQKFKGKAILTADKSSSTAYMELRSLTSEDSAVYFCTRSGYYGSPLLDYWGQGTTLTVSS
VL: QIVLSQSPAIMSASLGERVTMTCTASSSVSSSYLHWYQQKPGSSPKLWIYSTSNLASGVPARFSGSGSGTSYSLTISSMEAEDAATYYCHQYHRSPPTFGAGTKLEIKR
notes: also called anti AQP3 mAb E
B2: antibody G (antibody, mouse IgG2a, kappa, V domains shown)
VH: QVQLKQSGAELVRPGASVTLSCKASGYTFTDYEMHWVKQTPVHGLEWIGGIDPETGGTAYNQKFKGKAILTADKSSSTAYMELRSLTSEDSAVYYCTRWGAITSFVALRGFAYWGQGTLVTVSS
VL: DIQMTQSPSSLSVSAGEKVTMSCKSSQSLLNSGNQKNYLAWYQQKPGQPPKLLIYGASTRESGVPDRFTGSGSGTDFTLTISSVQAEDLAVYYCQNDHSYPPTFGAGTKLELKR
notes: also called anti AQP3 mAb G
B3: antibody F (antibody, mouse IgG2a, kappa, V domains shown)
VH: QVQLKESGPELVKPGASVKISCKASGYTFTDYYINWVKQRPGQGLEWIGWIFPGSGSTYYNEKFKGKATLTVDKSSSTAYMLLSSLTSEDSAVYFCADYGSSYRYFDVWGAGTTVTVSS
VL: DIVMTQSPAILSASPGEKVTMTCRASSSVSYMHWYQQKPGSSPKPWIYATSYLASGVPARFSGSGSGTSYSLTIGRVEAEDAATYYCQQWSSNPLTFGAGTKLELKR
notes: also called anti AQP3 mAb F
B4: antibody C (antibody, mouse IgG2a, kappa, V domains shown)
VH: QVQLKQSGAELARPGASVKLSCKASGYNFKSYGISWVKQRTGQGLEWIGEIYPGSGNTYYNEKLKGKATLTADKSSSTAYMELRSLTSEDSAVYFCARTYGYDSFPWFAYWGQGTLVTVSS
VL: DIVMTQAAPSVPVTPGESVSISCRSSKSLLHSNGNTYLYWFLQRPGQSPQLLIYRVSNLASGVPDRFSGSGSGTAFTLRISRVEAEDEGVYYCMQHLEYPFTFGAGTKLEIKR
notes: also called anti AQP3 mAb C
B5: antibody J (antibody, mouse IgG2a, kappa, V domains shown)
VH: QVHLQQSGTELVKPGASVKLSCEASGYTFTSYWMHWVKQRPGQGLEWIGNINPSNGGTNYNEKFKSKATLTVDKSSSTAYMQLSSLTSEDSAVYYCARGGIYYGNYDYYAMDYWGQGTSVTVSS
VL: B4 VL with E88V, A105G
notes: also called anti AQP3 mAb J; Ab
B6: antibody K (antibody, mouse IgG2a, kappa, V domains shown)
VH: QVQLKQSGAELVRPGTSVKVSCKASGYAFTNYLIEWVKQRPGQGLEWIGVINPGSGGTNYNEKFKGKATLTADKSSSTAYMQLSSLTSEDSAVYFCARWGFYYAMDYWGQGTSVTVSS
VL: DIVMTQSPSSLSASLGERVSLTCRASQEISGYLSWLQQKPDGTIKRLIYAASTLDSGVPKRFSGSRSGSDYSLTISSLESEDFADYYCLQYASYPLTFGAGTKLEIKR
notes: also called anti AQP3 mAb K
B7: antibody B (antibody, mouse IgG2a, kappa, V domains shown)
VH: EVQLVESGGDLVKPGGSLKLSCAASGFTFSSYGMSWVRQTPDKRLEWVATISRGSIYTYYPDSVKGRFTISRDNAKNTLYLQMSSLKSEDTAMYYCARLSLYDYDGARYTMDYWGQGTSVTVSS
VL: DIVMTQSPKFMSTSVGDRVSITCKASQDVGTAVAWYQQKPGQSPKLLIYWASTRHTGVPDRFTGSGSGTDFTLTISNVQSEDLADYFCQQYSSYHTFGAGTKLELKR
notes: also called anti AQP3 mAb B
B8: antibody H (antibody, mouse IgG2a, kappa, V domains shown)
VH: B7 VH with Q3K, G54R, K65Q
VL: B7 VL with V3K, L105I
notes: also called anti AQP3 mAb H
B9: antibody D (antibody, mouse IgG2a, kappa, V domains shown)
VH: EVQLQQSGAELVRPGASVTLSCKASGYTFTDYEMHWVQQTPVHGLEWIGGIDPETGGTGYNQKFKGKAILTADKSSSTAYMELRSLTSEDSAVYFCTRHGSYAMDYWGQGTSVTVSS
VL: DIVMTQSPKFMSTSVGDRVSITCKASQDVSTAVAWYQQKPGQSPKLLIYWASTRHTGVPDRFTGSGSGTDYTLTISSVQAEDLALYYCQQHYSTPPTFGGGTRLEIKR
notes: also called anti AQP3 mAb D
B10: antibody A (antibody, mouse IgG2a, kappa, V domains shown)
VH: QVQLQQPGAELVRPGASVTLSCKASGYTFTDYEMHWVKQTPVHGLEWIGGVDPETGGTGYNQKFRGKAILTADKSSSTAYMELRSLTSEDSAVYYCARHGGSFYAMDYWGQGTSVTVSS
VL: B9 VL with R103K, I106L
notes: also called anti AQP3 mAb A

Where a chain is given by its changes, count along the chain named.

The target of one assay is T1, mouse AQP3 in cell lysate of HEK293T …. The experiment in a line: ELISA on lysate of HEK293T cells overexpressing mouse AQP3 and a myc-biotinylated tag. An excerpt:
Cell lysate from HEK293T cells overexpressing mouse AQP3 and a myc-biotinylated tag was used in an ELISA assay to measure the binding of antibodies A, B, C, D, E, F, G, H, J, and K to AQP3. Cell lysate from HEK293T cells overexpressing the myc-biotinylated tag but not AQP3 was used as control.
In general terms: ELISA stands for enzyme-linked immunosorbent assay.
Consider B1, for which the binding result was “binds”.
The same measure, in the same setting: the entry for B2 is “binds”.
Take B3: the binding result is given as “binds”.
As to B4, the binding result is given as “binds”.
Still for that read-out and setting: the entry for B5 is “binds”; for B6 it is “binds”; for B7 it is “binds”.
On the same count and under the same terms, next, B8: “binds”.
Still for that read-out and setting: next, B9: “binds”; B10: “binds”.

The target in a further assay is T2, mouse AQP3 on the cell surface (PAM212 …). As to the kind of experiment: fluorescence of a labelled secondary antibody on mouse macrophage cells; antibody at 0.1, 1 and 10 µg/mL. As for the experimental part:
(§1) PAM212 and macrophage cells were reacted with each anti AQP3 antibody (0.1, 1, or 10 μg/mL) at 4° C. for 1 hour. After washing the cells, a fluorescent-labeled anti mouse secondary antibody was added and the reaction was allowed to occur additionally for 1 hour (4° C.). By measuring the fluorescence intensity, the binding property of each anti AQP3 antibody to cells was obtained.
The testing was also carried out using solvent (Veh) or a non-specific IgG (IgG) controls. In FIG. 4, the vertical axis represents fluorescence intensity, and the mean fluorescence intensity of each sample is represented by bar height together with standard error.
On to B5, for which the binding result is on record as “binds”.

The target of another assay is T3, human AQP3 on the cell surface (HaCaT …). As to the kind of experiment: fluorescence of a labelled secondary antibody on HaCaT cells; antibody at 10 µg/mL. As to the method: as §1
The assay was also performed using HaCaT cells and antibodies A, B, C, D, E, F, G, H, and J at a concentration of 10 μg/mL. Binding of antibodies C, D, E, H, and J to HaCaT cells was statistically significant. The results obtained by performing a FACS assay using HaCaT, which are human epithelial cells, and antibody G, antibody H, or antibody J are shown in FIG. 6A-6C, respectively. HaCaT cells were treated with Cell Dissociation Buffer for 30 minutes at 37° C., and then dislodged and collected. Then, the cells were reacted with 10 μg/mL anti AQP3 antibody at 4° C. for 1 hour. After washing the cells, a fluorescent-labeled anti mouse secondary antibody was added and the reaction was allowed to occur additionally for 1 hour (4° C.). Then, by using a flow cytometer, fluorescence intensity was measured (FIG. 6A to FIG. 6C). FIG. 6A represents the result of a case in which antibody G was used, FIG. 6B represents the result of a case in which antibody H was used, and FIG. 6C represents the result of a case in which antibody J was used. […] The histogram expressed with bold line represents a case in which the anti AQP3 antibody was used while the histogram expressed with thin gray line represents a case as a control in which the anti AQP3 antibody was not used (addition of non-specific IgG). […] Ratio (%) of the cells included in this range (=cells showing positive staining by anti AQP3 antibody) is also shown in the drawing.
As to B1, the binding result is recorded as “binds”.
B4: the binding result is reported as “binds”.
On the same count and under the same terms, next, B5: “binds”; B8: “binds”.
Same read-out and setting: the entry for B9 is “binds”.

The next assay has as its target T2, mouse AQP3 on the cell surface (PAM212 …). The experiment in a line: fluorescence of a labelled secondary antibody on PAM212 cells; antibody at 10 µg/mL. As for the experimental part: as §1
The assay was also performed using PAM212 cells and antibodies A, B, C, D, E, F, G, H, and J at a concentration of 10 μg/mL. Binding of antibodies C, D, E, G, and J to PAM212 cells was statistically significant.
In the case of B1, the binding result is reported as “binds”.
Still for that read-out and setting: next, B2: “binds”; B4: “binds”; B9: “binds”.

In the next assay the target is T4, peptide used for immunization (SEQ ID …). The experiment in a line: ELISA on the immunogen peptide SEQ ID NO:1. As for the experimental part: Binding of antibodies A, B, C, D, E, F, G, H, J, and K to the peptide used for immunization (SEQ ID NO:1) was tested in an ELISA assay. […] Thus, antibodies A, D, and F may therefore bind to AQP3 at a different epitope.
In the case of B1, the binding result was “binds”.
On the same count and under the same terms, the entry for B2 is “binds”; for B4 it is “binds”; for B5 it is “binds”.
On the same count and under the same terms, next, B6: “binds”; B7: “binds”.
Consider B8, for which the binding result is given as “binds”.

The target in another assay is T3, human AQP3 on the cell surface (HaCaT …). As to the kind of experiment: flow cytometry on HaCaT cells; antibody at 10 µg/mL. As for the experimental part: The assay was also performed using HaCaT cells and antibodies A, B, C, D, E, F, G, H, and J at a concentration of 10 μg/mL. Binding of antibodies C, D, E, H, and J to HaCaT cells was statistically significant. The results obtained by performing a FACS assay using HaCaT, which are human epithelial cells, and antibody G, antibody H, or antibody J are shown in FIG. 6A-6C, respectively. HaCaT cells were treated with Cell Dissociation Buffer for 30 minutes at 37° C., and then dislodged and collected. Then, the cells were reacted with 10 μg/mL anti AQP3 antibody at 4° C. for 1 hour. After washing the cells, a fluorescent-labeled anti mouse secondary antibody was added and the reaction was allowed to occur additionally for 1 hour (4° C.). Then, by using a flow cytometer, fluorescence intensity was measured (FIG. 6A to FIG. 6C). FIG. 6A represents the result of a case in which antibody G was used, FIG. 6B represents the result of a case in which antibody H was used, and FIG. 6C represents the result of a case in which antibody J was used. […] The histogram expressed with bold line represents a case in which the anti AQP3 antibody was used while the histogram expressed with thin gray line represents a case as a control in which the anti AQP3 antibody was not used (addition of non-specific IgG). […]
Turning to B2, the binding result was “binds”.

The next assay has as its target T2, mouse AQP3 on the cell surface (PAM212 …). As to the kind of experiment: FACS on HEK293 cells stably overexpressing mouse AQP3; antibody at 10 µg/mL. As to the method: A FACS assay was also performed using HEK293 cells stably overexpressing mouse AQP3. Cells were incubated with antibody E, H, J, or negative control IgG at a concentration of 10 μg/mL for one hour and then sorted by FACS. Separately, HEK293 cells stably overexpressing human AQP3 were incubated with antibody E at a concentration of 10 μg/mL for one hour and then sorted by FACS.
B8: the binding result is listed as “binds”.
